We go through 2 substances from patent EP1188448A2.

For this assay, the target named is FGF receptors. The assay can be described thus: cell-based or functional assay.

Turning to “bFGF-SAP fusion protein (FGF-Ala-Met-SAP), wild type”, the ID50, cytotoxicity on SK-Mel-28 cells (72 h, MTT) was found to be 600 pM; the ID50, inhibition of proliferation of serum stimulated rabbit keratocytes (3 h) lay within 1000 to 10000 pM; the ID50, inhibition of rabbit keratocyte proliferation (48 h) was determined as 200 pM.
Take “wild type bFGF-SAP chemical conjugate (heterogeneous FGF-SAP) (from UniProt P20656 25-277)”: the ED50, cytotoxicity on SK-MEL-28 cells came out at 8 ng/mL; the ID50, cytotoxicity on SK-Mel-28 cells (72 h, MTT) worked out at 300 pM; the ID50, inhibition of proliferation of serum stimulated rabbit keratocytes (3 h) was 1000 to 10000 pM; the ID50, inhibition of rabbit keratocyte proliferation (48 h) amounted to 100 pM.
